B1: human monoclonal antibody F19 (antibody, V domains shown)
VH: EVQLLESGGGVVQPGGSLRLSCAASGFTFDDYAMHWVRQVPGKGLEWVSLISGDGGSTSYADSVKGRFTISRDNSKNSLYLQMSSLRTEDTALYYCAKDRGRAWIDYWGQGTLVTVSS
VL: not shown
notes: also called HRP-conjugated F19; source: Expi293F, cotransfected heavy and light chain plasmids, purified (Protein A); copies: 2 + 2
B2: human anti-F1 monoclonal antibody αF1Ig8 (antibody, V domains shown)
VH: QVQLQQWGAGLLKPSETLSLTCAVYGGSFSGYYWSWIRQPPGKGLEWIGEINHSGNTNYNPSLKSRVTISVDTSKNQFSLQLNSVTPEDTAVYYCARTRGYFDLWGRGTLVTVSS
VL: DIRMTQSPSSLSASVGDRVTITCRASQSISSYLNWYQQKPGKAPKLLIYATSSLQSGVPSRFSGSGSGTDFTLTISSLQFEDFATYYCQQSYSTPSSFGQGTKVDIK
notes: source: EXPi293F, synthesized expression plasmids
B3: human monoclonal antibody F23 (antibody, V domains shown)
VH: EVQLLESGGGVVQPGRSLRLSCAASGFTFSSYAMHWVRQAPGKGLEWVAAILYDGSNKNYADSVKGRFTISRDNSKNTLYLQMNSLRAEDTAVYYCARGTPAMVRGVIGPLFEHWGQGTLVTVSS
VL: DIQMTQSPDSLAVALGERATINCKSSQSVLYTSNNKNYLAWYQKKPGQPPKLLIYWASTRESGVPDRFSGSGSGTDFTLTISSLQPEDVAVYYCQQYFILPRTFGQGTKLEIK
notes: also called HRP-conjugated F23; source: Expi293F, cotransfected heavy and light chain plasmids, purified (Protein A); copies: 2 + 2
B4: human monoclonal antibody F3 (antibody, V domains shown)
VH: EVQLLESGGGVVQPGRSLRLSCAASGFTFSRYGMHWVRQAPGKGLEWVAVISHDGNIKYYGDSVKGRFTISRDNSKNTLYLQMNSLRVEDTAVYYCAKDRGKFDSWGQGTLVTVSS
VL: not shown
notes: also called F3-HRP; source: Expi293F, cotransfected heavy and light chain plasmids, purified (Protein A); copies: 2 + 2

Columns and labels:
[1] = target: fraction 1 capsular antigen (F1) of Yersinia pestis (Yersinia pestis EV strain, UniProt P26948); assay: BLI; settings: both partners purified
[2] = target: T1, SARS-CoV-2 nucleocapsid protein (N) (SARS-CoV-2, strain , UniProt P0DTC9); assay: ELISA
T1 construct: also called SARS-CoV-2 NPs

[3] = target: fraction 1 capsular antigen (F1) of Yersinia pestis (Yersinia pestis EV strain, UniProt P26948); assay: ELISA; settings: both partners purified

Binder	Kd [1]	binding result [2]	binding result [3]
B1	165 pM	no binding	
B2			binds
B3		no binding	
B4		no binding	
